Where a chain is given by its changes, count along the chain named. Each block holds one binder with its values, some of them ahead of it.
Tests used:
Assay in all cases: ELISA, antigen-coated plate
[1] = biological target: T1, nAra h 2 (peanut, UniProt Q6PSU2 22-172)
T1 construct: Bought natural allergen; also called naturally extracted Ara h 2
T1 sequence (looked up): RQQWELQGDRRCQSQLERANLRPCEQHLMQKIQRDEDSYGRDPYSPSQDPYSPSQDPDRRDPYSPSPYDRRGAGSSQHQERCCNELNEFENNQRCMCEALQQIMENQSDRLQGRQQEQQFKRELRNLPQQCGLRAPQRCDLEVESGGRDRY
Protocol: (§1) EC50 binding of exemplary anti-peanut antibodies of the present invention to peanut allergens or peanut extract, was determined by ELISA. Serial dilutions of MAbs (from 1000 ng/ml down to 0.0169 ng/ml) were incubated for 2 hours with antigen-coated plates (coating overnight at 4° C. or 1 h at 37° C. with 1 μg/ml antigen in PBS, followed by wash out and blocking with 2% BSA in PBS). The plates were subsequently washed and binding of MAbs was detected with anti-human HRP-conjugated Fc-gamma-specific secondary antibody (Jackson ImmunoResearch, West Grove, Pa., USA). Concentrations of MAb resulting in half of maximal binding to respective antigens (EC50, ng/ml) were calculated using GraphPad Prism 5 software on sigmoidal dose-response curves (variable slope, 4 parameters) obtained by plotting the log of the concentration versus OD450 nm measurements; for the results see FIG. 3 and table 2.

[2] = biological target: T2, nAra h 6 (peanut, UniProt Q647G9 22-145)
T2 construct: Bought natural allergen; also called naturally extracted Ara h 6
T2 sequence (looked up): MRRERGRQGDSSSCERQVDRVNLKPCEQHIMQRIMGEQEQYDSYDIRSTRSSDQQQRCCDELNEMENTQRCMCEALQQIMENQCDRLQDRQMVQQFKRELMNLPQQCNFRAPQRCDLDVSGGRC
Protocol: as §1

[3] = biological target: T3, nAra h 1 (peanut, UniProt P43238 85-626)
T3 construct: Bought natural allergen; also called naturally extracted Ara h 1
T3 sequence (looked up): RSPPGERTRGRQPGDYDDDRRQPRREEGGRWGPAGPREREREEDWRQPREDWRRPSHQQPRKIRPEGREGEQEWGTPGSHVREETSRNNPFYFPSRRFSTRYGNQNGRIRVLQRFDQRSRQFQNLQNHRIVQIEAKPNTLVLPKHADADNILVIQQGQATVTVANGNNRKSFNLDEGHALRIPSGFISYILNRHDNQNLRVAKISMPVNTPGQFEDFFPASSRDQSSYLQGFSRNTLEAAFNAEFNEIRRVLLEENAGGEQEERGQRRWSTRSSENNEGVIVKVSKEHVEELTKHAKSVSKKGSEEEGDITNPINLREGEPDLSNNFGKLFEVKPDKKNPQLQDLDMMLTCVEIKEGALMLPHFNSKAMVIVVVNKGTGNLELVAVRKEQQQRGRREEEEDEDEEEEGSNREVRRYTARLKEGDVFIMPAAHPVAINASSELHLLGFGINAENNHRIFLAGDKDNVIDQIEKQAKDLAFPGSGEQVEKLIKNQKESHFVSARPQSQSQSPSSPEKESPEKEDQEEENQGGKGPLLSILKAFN
Protocol: as §1

[4] = biological target: T4, nAra h 3 (peanut)
T4 construct: Bought natural allergen; also called naturally extracted Ara h 3
Protocol: as §1

B1: hm2F8 (antibody, V domains shown)
VH: EVQLVESGGGLVKPGGSLRLSCAASGFIFSDYNMNWVRQAPGKGLEWVSSITRSSRTIYYADSVKGRFTISRDNAKNSLHLQMNSLRDADTAVYYCAREDFDVSTGPYYMDVWGNGTTVIVSS
VL: EIVLTQSPGTLSLSPGERATLSCRASQSVSNMFLVWYQQKPGQAPRLLMYGASTRATDIPDRFSGSGSGTDFTLTISRLEPEDFAVYYCQQNGNSPYTFGQGTKLEIK
notes: also called 2F8 with mouse Fc; hmMAb 2F8
EC50 [1]: 0.0087 µg/mL

B2: hm4B2 (antibody, V domains shown)
VH: QVQLQEAGPRLVKPSQTLSVTCTVSGASITIGGYYWSWIRQHPGKGLEWMGYIYSNGRTYYNPSLKSRIAMSIDTSKNQFSLKLTSVTAADTAIYFCAREAWETPLWGQGTLITVSS
VL: DIQMTQSPSSLSASVGDRVTITCQANQDIVNSLNWFQHKPGTAPKVLIYDASKLETGVPSRFSGSGSGTHFTFTISGLQPEDFATYFCQQYENLPHTFGQGTKLEIR
notes: also called 4B2 with mouse Fc; hmMAb 4B2
EC50 [1]: 0.0102 µg/mL

Continued, values first:

EC50 [2]: 0.0278 µg/mL
EC50 [3]: 0.195 µg/mL
EC50 [4]: 0.0368 µg/mL
EC50 [1]: 0.0067 µg/mL
B3: hm12G10 (antibody, V domains shown)
VH: EVQLLESGGRLLRPGGSLSLSCVASGFYFGDFGMSWVRQVPGKGLEWVSGIDWSGRSTGYVDSMKGRLTISRDNDKSSLYLQMNDLRGEDTAVYYCARVGRLCSGDSCDSMGAFDLWGQGTMVTVSS
VL: DIQLTQSPSTLSASIGDSVTITCRASQNIDNWLAWYQQKPGKAPRLLIYKASSLGSGVSSKFRGSGFGTEFTLTITSLQPDDFATYYCQKSNGYSRTFGQGTKVDIK
notes: also called 12G10 with mouse Fc; hmMAb 12G10

EC50 [2]: 0.034 µg/mL
EC50 [3]: 0.115 µg/mL
EC50 [4]: 0.0723 µg/mL
EC50 [1]: 0.0052 µg/mL
B4: hm37D5 (antibody, V domains shown)
VH: EEQLVESGGRLLRPGESLSLSCAAVGFNFGDFGMAWVRQPPGKGLEWVAGINWSGHSTGFVDSMKGRLTISRDSAKSSLFLQMNSLRGEDTAVYYCARVGRLCSGDICDSMGAFDLWGQGTMVTVSS
VL: B3 VL with L4M, S18R, N28T, K39R, R45K, K50Q, G55Q, K61R, F67S, D105E
notes: also called 37D5 with mouse Fc; hmMAb 37D5

EC50 [1]: 0.0099 µg/mL
B5: hm32B10 (antibody, V domains shown)
VH: QVQLVQSGAEVKKPGASVKVSCRASGYIFRNFDINWVRQATGQGLEWMGWMSPKSGDTGYAQKFQGRVTMTRDTSINTAYMELSSLTSEDSAVYYCARGVDGTNWGQGTRVTVSS
VL: DIVMTQSPDSLGVSLGERATISCKSSQSILDNSNNKNFIAWFQQKPGQPPKLLIYWASARESGVPDRFSGSGSGTEFTLTINSLQAEDVAVYYCYQYYSTPHTFGQGTKLDLR
notes: also called 32B10 with mouse Fc; hmMAb 32B10

— US20200199207A1 (MABYLON, published 2020)
